Measured values as given in the Human Domainome abundance scans (Beltran et al. 2025).

B1: POU domain, class 3, transcription factor 2, residues 262 to 338; numbered along this chain, P20265 (parent)
chain: EDTPTSDDLEQFAKQFKQRRIKLGFTQADVGLALGTLYGNVFSQTTICRFEALQLSFKNMCKLKPLLNKWLEEADSS

Variants of: B1
Test: abundance fitness (aPCA) (normalised: wild type 0, dead -1); higher = more abundant; growth selection in yeast, the domain comes from the species named
Conditions: Homo sapiens

Abundance fitness, by site and new letter:
P4: M 0.068, C 0.108, V 0.061, D 0.029, I 0.096, E 0.002, H 0.075, K 0.063, G -0.01, S -0.018, W 0.091, N -0.095, F 0.149, L 0.164, Q 0.053, R -0.027, Y -0.102
Q11: G -0.103, D -0.114, S -0.046, C -0.141, P -0.629, Y -0.024, W -0.196, I -0.063, H 0.017, V -0.015, K 0, R 0.001, F -0.062, N 0.025, L -0.04, M 0.035, T -0.049, A 0.016
F12: Q -0.828, G -0.582, M -0.223, Y -0.023, A -0.283, R -0.401, V -0.442, S -0.614, D -0.561, I -0.66, W -0.27, T -0.359, C -0.555, L -0.776
D7: K 0.029, A -0.154, Q 0.211, R 0.031, P -0.143, L -0.434, V 0.021, G 0.064, E -0.087, W 0.143, S 0.054
A13: V -0.044, I -0.12, N -1.07, S -0.274, F -0.84, P -0.731, C -0.156, H -0.544, G -0.605, E -0.645, D -0.865, Q -0.73, K -0.606, T -0.255, Y -0.845, L -0.759, W -0.913, M -0.259
D8: V -0.153, T -0.093, Y -0.41, S 0.034, E 0.079, A -0.006, L -0.172, Q 0.055, I -0.423, C -0.121, W -0.418, R -0.234, F -0.186, N 0.047, G -0.043, P -0.34, M -0.056, H -0.052, K -0.074
T5: R -0.082, V -0.108, Q -0.082, H -0.079, I -0.006, E -0.144, C 0.038, S -0.008, N 0.026, P -0.138, L -0.041, Y -0.337, D -0.042, M -0.056, F -0.109
E10: D -0.259, Y 0.054, C -0.01, L 0.128, A 0.006, M 0.008, K 0.124, T -0.103, P -0.189, H 0.093, V 0.038, S -0.028, I -0.086, G -0.223, N -0.204
L9: R -0.716, K -0.606, Q -0.53, C -0.246, H -0.352, G -0.605, I 0.074, D -0.497, S -0.564, A -0.491, V -0.107, N -0.394, P -0.483, W -0.396, Y -0.457, E -0.797, T -0.289
K14: A -0.008, C -0.136, D -0.012, I -0.267, G -0.251, F -0.337, E 0.018
S6: E -0.038, C 0.058, V 0.062, T 0.099, H 0.265, Q 0.124, G -0.05, P 0.059, I 0.011, K 0.091, W 0.098, A 0.108, D -0.092, N -0.032, M 0.148, Y 0.126
